This is an account of results in PMC5659210, “Extending the biocatalytic scope of regiocomplementary flavin-dependent halogenase enzymes” (Chemical Science, 2015).

The data set relates to Nc1ccccc1C(=O)O. Briefly: Michaelis-Menten chlorination assay, HPLC, Fre-coupled. The following applies: Fre in excess, 30 °C. The class given is biochemical, Pseudomonas fluorescens. The source says: Michaelis-Menten chlorination assay, HPLC, Fre-coupled on PrnA

Turning to “PrnA (Pseudomonas fluorescens; E450K/F454K)”, the Michaelis constant (Km) came out at 205 ± 16 µM, the kcat worked out at 0.0303 ± 0.000667 s⁻¹ and the catalytic efficiency (kcat/Km) was 148 ± 11.7 M⁻¹ s⁻¹.
The like results for PrnA (Pseudomonas fluorescens; E450K) were, in that order, 384 ± 93 µM, 0.0155 ± 0.000833 s⁻¹ and 40 ± 10 M⁻¹ s⁻¹.
With PrnA (Pseudomonas fluorescens; F454K), the Km is 3628 ± 1108 µM, the kcat amounted to 0.061 ± 0.0112 s⁻¹ and the kcat/Km is 16.7 ± 6.67 M⁻¹ s⁻¹.
Consider “PrnA (Pseudomonas fluorescens; E450K/F454R)”, for which the Km turned out to be 378 ± 59 µM, the kcat was determined as 0.0212 ± 0.00117 s⁻¹ and the kcat/Km amounted to 56.7 ± 10 M⁻¹ s⁻¹.
